Measurements from patent US20060153775A1.
Starred links: 1 amine or outer side, 2 acyl side, 3 side chain; linkers in the order of their positions; H or OH if unused. Primed or numbered codes have the meaning given here. DPPE′ = dipalmitoylphosphatidylethanolamine; Glutaryl = O=C(CCCC(=O)[*:2])[*:1]

Legend:
[1] = molecular target: binding target for TKPPR on HAEC (human aortic endothelial cells); experiment: static bubble binding to HAEC, 5% composition, untreated cells
[2] = molecular target: binding target for TKPPR on HAEC (human aortic endothelial cells); experiment: static bubble binding to HAEC, 5% composition
[3] = molecular target: binding target for TKPPR on HAEC (human aortic endothelial cells); experiment: static bubble binding to HAEC, 1% D47, no competitor
[4] = molecular target: binding target for TKPPR on RAEC (rabbit aortic endothelial cells); experiment: static bubble binding to RAEC, 5% composition, no competitor
[5] = molecular target: binding target for TKPPR on HAEC (human aortic endothelial cells); experiment: static bubble binding to HAEC, manual count
[6] = molecular target: binding target for TKPPR on HAEC (human aortic endothelial cells); experiment: static bubble binding to HAEC treated 4 h with 1 ng/mL TNFα, 5% composition
[7] = molecular target: binding target for TKPPR on HAEC (human aortic endothelial cells); experiment: static bubble binding to HAEC, 10% D47, no competitor
[8] = molecular target: binding target for TKPPR on HAEC (human aortic endothelial cells); experiment: static bubble binding to HAEC, 5% D47, no competitor
[9] = molecular target: binding target for TKPPR on HAEC (human aortic endothelial cells); experiment: static bubble binding to HAEC treated 4 h with 5 ng/mL TNFα, 5% composition
[10] = molecular target: binding target for TKPPR on HAEC (human aortic endothelial cells); experiment: static bubble binding to HAEC, 5% composition, no competitor (same control as Table 13)
[11] = molecular target: KB cells (human epidermoid carcinoma cell line); experiment: static bubble binding to KB cells, 5% composition
[12] = molecular target: binding target for TKPPR on HAEC (human aortic endothelial cells); experiment: static bubble binding to HAEC, 1% composition, no competition
[13] = molecular target: binding target for TKPPR on HAEC (human aortic endothelial cells); experiment: static bubble binding to HAEC, 5% composition, no competition
[14] = molecular target: binding target for TKPPR on HAEC (human aortic endothelial cells); experiment: static bubble binding to HAEC, 2% D47, no competitor
[15] = molecular target: binding target for TKPPR on HAEC (human aortic endothelial cells); experiment: static bubble binding to HAEC, 5% composition, no competitor
[16] = molecular target: binding target for TKPPR on HAEC (human aortic endothelial cells); experiment: static bubble binding to HAEC treated 4 h with 10 ng/mL TNFα, 5% composition
[17] = molecular target: binding target for TKPPR on HAEC (human aortic endothelial cells); experiment: competition of 10% D47 bubble binding to HAEC; free TKPPR 10 µM
[18] = molecular target: binding target for TKPPR on HAEC (human aortic endothelial cells); experiment: competition of TKPPR-bead binding to HAEC; free TKPPR 25 µM
[19] = molecular target: binding target for TKPPR on HAEC (human aortic endothelial cells); experiment: competition of 1% composition bubble binding to HAEC; free TKPPR 5 µM
[20] = molecular target: binding target for TKPPR on HAEC (human aortic endothelial cells); experiment: competition of 5% D47 bubble binding to HAEC; free TKPPR 200 µM
[21] = molecular target: binding target for TKPPR on HAEC (human aortic endothelial cells); experiment: competition of 1% D47 bubble binding to HAEC; free TKPPR 200 µM
[22] = molecular target: binding target for TKPPR on HAEC (human aortic endothelial cells); experiment: competition of 5% D47 bubble binding to HAEC; free TKPPR 100 µM
[23] = molecular target: binding target for TKPPR on HAEC (human aortic endothelial cells); experiment: competition of TKPPR-bead binding to HAEC; free TKPPR 500 µM
[24] = molecular target: binding target for TKPPR on HAEC (human aortic endothelial cells); experiment: competition of 1% D56 bubble binding to HAEC; TKPPR 50 µM
[25] = molecular target: binding target for TKPPR on HAEC (human aortic endothelial cells); experiment: competition of 1% D47 bubble binding to HAEC; TKPPR 10 µM
[26] = molecular target: binding target for TKPPR on HAEC (human aortic endothelial cells); experiment: competition of 1% D47 bubble binding to HAEC; TKPPR 25 µM
[27] = molecular target: binding target for TKPPR on HAEC (human aortic endothelial cells); experiment: competition of 5% composition bubble binding to HAEC; free TKPPR 100 µM
[28] = molecular target: binding target for TKPPR on HAEC (human aortic endothelial cells); experiment: competition of 5% composition bubble binding to HAEC
[29] = molecular target: binding target for TKPPR on HAEC (human aortic endothelial cells); experiment: competition of 1% D47 bubble binding to HAEC; TKPPR 100 µM
[30] = molecular target: binding target for TKPPR on HAEC (human aortic endothelial cells); experiment: competition of 5% D47 bubble binding to HAEC; free TKPPR 50 µM
[31] = molecular target: binding target for TKPPR on HAEC (human aortic endothelial cells); experiment: competition of 2% D47 bubble binding to HAEC; TKPPR 25 µM
[32] = molecular target: binding target for TKPPR on HAEC (human aortic endothelial cells); experiment: competition of TKPPR-bead binding to HAEC; free TKPPR 10 µM
[33] = molecular target: binding target for TKPPR on HAEC (human aortic endothelial cells); experiment: competition of 1% D47 bubble binding to HAEC; TKPPR 2.5 µM
[34] = molecular target: binding target for TKPPR on HAEC (human aortic endothelial cells); experiment: competition of 1% D47 bubble binding to HAEC; free TKPPR 10 µM
[35] = molecular target: binding target for TKPPR on HAEC (human aortic endothelial cells); experiment: competition of 1% composition bubble binding to HAEC; free TKPPR 100 µM
[36] = molecular target: VEGF receptors on HUVECs; experiment: competition with 125I-VEGF for binding to HUVECs
[37] = molecular target: binding target for TKPPR on HAEC (human aortic endothelial cells); experiment: competition of TKPPR-bead binding to HAEC; free TKPPR 200 µM
[38] = molecular target: binding target for TKPPR on HAEC (human aortic endothelial cells); experiment: competition of 10% D47 bubble binding to HAEC; free TKPPR 100 µM
[39] = molecular target: binding target for TKPPR on HAEC (human aortic endothelial cells); experiment: competition of TKPPR-bead binding to HAEC; free TKPPR 50 µM
[40] = molecular target: binding target for TKPPR on HAEC (human aortic endothelial cells); experiment: competition of 1% composition bubble binding to HAEC; free TKPPR 25 µM
[41] = molecular target: binding target for TKPPR on HAEC (human aortic endothelial cells); experiment: competition of 10% D47 bubble binding to HAEC; free TKPPR 200 µM
[42] = molecular target: binding target for TKPPR on HAEC (human aortic endothelial cells); experiment: competition of 1% D47 bubble binding to HAEC; free TKPPR 50 µM
[43] = molecular target: binding target for TKPPR on HAEC (human aortic endothelial cells); experiment: competition of 1% D56 bubble binding to HAEC; TKPPR 10 µM
[44] = molecular target: binding target for TKPPR on HAEC (human aortic endothelial cells); experiment: competition of TKPPR-bead binding to HAEC; free TKPPR 100 µM
[45] = molecular target: binding target for TKPPR on HAEC (human aortic endothelial cells); experiment: competition of 1% composition bubble binding to HAEC
[46] = molecular target: binding target for TKPPR on HAEC (human aortic endothelial cells); experiment: competition of 10% D47 bubble binding to HAEC; free TKPPR 50 µM
[47] = molecular target: binding target for TKPPR on HAEC (human aortic endothelial cells); experiment: competition of 1% composition bubble binding to HAEC; free TKPPR 50 µM
[48] = molecular target: binding target for TKPPR on HAEC (human aortic endothelial cells); experiment: competition of 1% D47 bubble binding to HAEC; free TKPPR 100 µM
[49] = molecular target: binding target for TKPPR on HAEC (human aortic endothelial cells); experiment: competition of 5% D47 bubble binding to HAEC; free TKPPR 10 µM
[50] = molecular target: binding target for TKPPR on HAEC (human aortic endothelial cells); experiment: competition of 1% D47 bubble binding to HAEC; TKPPR 5 µM
[51] = molecular target: binding target for TKPPR on HAEC (human aortic endothelial cells); experiment: competition of 1% D56 bubble binding to HAEC; TKPPR 25 µM
[52] = molecular target: binding target for TKPPR on HAEC (human aortic endothelial cells); experiment: competition of 1% composition bubble binding to HAEC; free TKPPR 10 µM
[53] = molecular target: binding target for TKPPR on HAEC (human aortic endothelial cells); experiment: competition of 1% D47 bubble binding to HAEC; TKPPR 50 µM
[54] = molecular target: binding target for TKPPR on RAEC (rabbit aortic endothelial cells); experiment: competition of 5% composition bubble binding to RAEC; free TKPPR 100 µM
[55] = molecular target: binding target for TKPPR on HAEC (human aortic endothelial cells); experiment: competition of 1% D56 bubble binding to HAEC; TKPPR 2.5 µM

{DPPE′-Glutaryl}-GTKPPR-OH (also: held in phospholipid shell of microbubbles) [gas-filled microbubbles containing DPPE-Glu-GTKPPR (D47), composition I of Example 5]
TKPPR-Bubbles bound [1]: 950 bubbles
Bubbles Bound [2]: 7050 bubbles
bubble binding [2]: 1120 bubbles
Bubbles Bound [3]: 737 bubbles
Bubbles Bound- 1% [3]: 1640 bubbles
RAEC bubbles bound [4]: 751 bubbles
% more bubbles bound than with the 1% composition [5]: 31%
TKPPR-Bubbles bound [6]: 1520 bubbles
Bubbles Bound- 10% [7]: 1860 bubbles
Bubbles Bound- 5% [8]: 2780 bubbles
TKPPR-Bubbles bound [9]: 1360 bubbles
Bubbles Bound [10]: 1250 bubbles
bubble binding [11]: 56 bubbles
Bubbles Bound [12]: 555 bubbles
Bubbles Bound [13]: 726 bubbles
Bubbles Bound [14]: 953 bubbles
Bubbles Bound % [14]: 100 % of control
Bubbles Bound [15]: 1250 bubbles
HAEC bubbles bound [15]: 1420 bubbles
TKPPR-Bubbles bound [16]: 1020 bubbles

TKPPR [TKPPR (L-threonyl-L-lysyl-L-prolyl-L-prolyl-L-arginine)]
Bubbles Bound- 10%, in presence of competitor [17]: 1090 bubbles
% Inhibition (average, n = 11) [18]: 50.7%
Average % Inhibition [19]: 45.7%
Bubbles Bound- 5%, in presence of competitor [20]: 13 bubbles
Bubbles Bound- 1%, in presence of competitor [21]: 4 bubbles
Bubbles Bound- 5%, in presence of competitor [22]: 12 bubbles
% Inhibition (average, n = 11) [23]: 70.6%
Bubbles Bound- D56 Formulation, in presence of competitor [24]: 462 bubbles
Bubbles Bound in presence of competitor [25]: 528 bubbles
Bubbles Bound- D47 Formulation, in presence of competitor [25]: 535 bubbles
Bubbles Bound in presence of competitor [26]: 106 bubbles
Bubbles Bound- D47 Formulation, in presence of competitor [26]: 75 bubbles
HAEC bubbles bound in presence of competitor [27]: 58 bubbles
% more bubbles bound with competitor [28]: 19%
Bubbles Bound in presence of competitor [29]: 17 bubbles
Bubbles Bound- 5%, in presence of competitor [30]: 440 bubbles
Bubbles Bound % in presence of competitor [31]: 16 % of control
% Inhibition (average, n = 11) [32]: 30.8%
Bubbles Bound- D47 Formulation, in presence of competitor [33]: 1240 bubbles
Bubbles Bound- 1%, in presence of competitor [34]: 10 bubbles
Average % Inhibition [35]: 93.7%
IC50 [36]: 250 µM
% Inhibition (average, n = 11) [37]: 72.2%
Bubbles Bound- 10%, in presence of competitor [38]: 399 bubbles
% Inhibition (average, n = 11) [39]: 50.5%
Average % Inhibition [40]: 82%
Bubbles Bound- 10%, in presence of competitor [41]: 66 bubbles
Bubbles Bound- 1%, in presence of competitor [42]: 5 bubbles
Bubbles Bound- D56 Formulation, in presence of competitor [43]: 833 bubbles
% Inhibition (average, n = 11) [44]: 62%
% inhibition of bubble binding [45]: 82.7%
Bubbles Bound- 10%, in presence of competitor [46]: 857 bubbles
Average % Inhibition [47]: 92.7%
Bubbles Bound- 1%, in presence of competitor [48]: 4 bubbles
Bubbles Bound- 5%, in presence of competitor [49]: 1340 bubbles
Bubbles Bound in presence of competitor [50]: 790 bubbles
Bubbles Bound- D56 Formulation, in presence of competitor [51]: 718 bubbles
Average % Inhibition [52]: 79.6%
Bubbles Bound in presence of competitor [53]: 56 bubbles
Bubbles Bound- D47 Formulation, in presence of competitor [53]: 9 bubbles
RAEC bubbles bound in presence of competitor [54]: 21 bubbles
Bubbles Bound- D56 Formulation, in presence of competitor [55]: 888 bubbles
